Experimental data reported in US20240262926A1 (published 2024).
One block for each binder: values may come before it.

Key:
[1] = target: human TrkB (GenBank Acc. No. NP_001018074.1) expressed in CHO cells (human, UniProt Q16620 32-822); assay: cell-based or functional assay
[2] = target: T1, recombinant monkey TfR (r monkey TfR: Sino Biological Inc.) (cynomolgus monkey (Macaca fascicularis), UniProt Q5RDH6 89-760 (Pongo abelii entry)); assay: ELISA, plate-coated recombinant TfR, detection with biotin-labeled anti-BDNF antibody and streptavidin-HRP
T1 construct: Bought product; also called r monkey TfR-ECD (Histag); cynomolgus monkey TfR; not shown: histidine tag attached to the N-terminus
T1 chain: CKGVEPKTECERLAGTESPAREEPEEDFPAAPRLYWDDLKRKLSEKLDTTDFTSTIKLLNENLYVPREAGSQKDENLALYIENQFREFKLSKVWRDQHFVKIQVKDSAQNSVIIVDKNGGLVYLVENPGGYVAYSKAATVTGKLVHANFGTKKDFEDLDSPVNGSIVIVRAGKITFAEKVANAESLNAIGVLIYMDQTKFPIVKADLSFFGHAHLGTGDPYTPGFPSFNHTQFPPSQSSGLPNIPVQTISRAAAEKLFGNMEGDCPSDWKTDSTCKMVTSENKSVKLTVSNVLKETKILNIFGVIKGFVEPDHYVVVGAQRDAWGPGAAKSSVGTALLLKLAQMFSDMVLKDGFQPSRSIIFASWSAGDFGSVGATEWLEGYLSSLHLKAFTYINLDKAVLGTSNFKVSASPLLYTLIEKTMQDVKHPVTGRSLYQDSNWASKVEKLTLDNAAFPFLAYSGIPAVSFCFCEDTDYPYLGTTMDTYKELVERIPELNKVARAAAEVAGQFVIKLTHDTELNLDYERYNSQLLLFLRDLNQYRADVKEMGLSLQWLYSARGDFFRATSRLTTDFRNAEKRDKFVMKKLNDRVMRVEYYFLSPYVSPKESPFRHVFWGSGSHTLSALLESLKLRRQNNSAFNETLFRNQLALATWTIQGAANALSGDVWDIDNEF
Method: (§1) The affinity of the hBDNF-anti-hTfR antibody fusion protein to hTfR was measured using an ELISA method. The measurement by the ELISA method was generally carried out by the following method. As human TfR, recombinant human TfR (r human TfR: Sino Biological Inc.) having the amino acid sequence of the extracellular region of hTfR, ranging from the cysteine residue at the position 89th from the N-terminal side to the phenylalanine at the C-terminus in the amino acid sequence set forth as SEQ ID NO:1, to the N-terminus of which a histidine tag was added, was used. As monkey TfR, recombinant monkey TfR (r monkey TfR: Sino Biological Inc.) having the amino acid sequence of the extracellular region of cynomolgus monkey hTfR, ranging from the cysteine residue at the position 89th from the N-terminal side to the phenylalanine at the C-terminus in the amino acid sequence set forth as SEQ ID NO:2, to the N-terminus of which a histidine tag was added, was used. The measurement was carried out on the hBDNF-anti-hTfR antibodies 3, 4 and 6 among the hBDNF-humanized anti-hTfR antibody fusion proteins obtained in Example 17.
(§2) Recombinant human and monkey TfR (Sino Biological Inc.) were each diluted to 0.5 μg/mL, and the diluted solution was then added in an amount of 100 μL to each well of a 96-well plate (Nunc Inc), followed by leaving it to stand for 1 hour. […]

[3] = target: T2, recombinant human TfR (r human TfR: Sino Biological Inc.) (human, UniProt P02786 89-760); assay: as above
T2 construct: Bought product; also called r human TfR-ECD (Histag); hTfR; not shown: histidine tag attached to the N-terminus
Method: as §1, §2

[4] = target: T1, recombinant monkey TfR (r monkey TfR: …); assay: BLI (Octet RED96), method of Example 7, His-tagged TfR ECD on Ni-NTA sensor
Method: (§3) Each of the antibodies (anti-hTfR antibody Nos. 1 to 14) purified above was subjected to 2-fold dilution steps with HBS-P+(10 mM HEPES containing 150 mM NaCl, 50 μM EDTA and 0.05% Surfactant P20) to prepare antibody solutions of 7 different concentrations, 0.78125 to 50 nM (0.117 to 7.5 μg/mL). These antibody solutions were used as the sample solutions. The r human and r monkey TfRs were respectively diluted with HBS-P+ to prepare 25 μg/mL solutions, which were used as r human TfR-ECD (Histag) solution and r monkey TfR-ECD (Histag) solution, respectively.
(§4) Each of the sample solutions prepared above by 2-fold dilution steps was added, 200 μL/well, to a 96-well plate, black (Greiner Bio-One Inc.). Each of the r human TfR-ECD (Histag) solution and the r monkey TfR-ECD (Histag) solutions prepared above was added, 200 μL/well, to predetermined wells. To respective wells for baseline, dissociation and washing were added HBS-P+, 200 μL/well. To wells for regeneration were added 10 mM Glycine-HCl, pH 1.7, 200 μL/well. To wells for activation was added 0.5 mM NiCl₂ solution, 200 μL/well. The plate and biosensor (Biosensor/Ni-NTA: ForteBio Inc., a division of Pall Corporation) were set in the prescribed positions of Octet RED96. […] The measurement was performed at 25 to 30° C.
(§5) The affinity of the humanized anti-hTfR antibodies obtained in Example 13 to human and monkey TfRs was measured by the method described in Example 7.

[5] = target: T2, recombinant human TfR (r human TfR: …); assay: as above
Method: as §3, §4, §5

[6] = target: T1, recombinant monkey TfR (r monkey TfR: …); assay: ELISA on plate-coated recombinant TfR ('the present measurement method' of Example 18-2)
[7] = target: T2, recombinant human TfR (r human TfR: …); assay: as above

Chain of human TrkB (GenBank Acc. No. NP_001018074.1) expressed in CHO cells (Q16620 32-822): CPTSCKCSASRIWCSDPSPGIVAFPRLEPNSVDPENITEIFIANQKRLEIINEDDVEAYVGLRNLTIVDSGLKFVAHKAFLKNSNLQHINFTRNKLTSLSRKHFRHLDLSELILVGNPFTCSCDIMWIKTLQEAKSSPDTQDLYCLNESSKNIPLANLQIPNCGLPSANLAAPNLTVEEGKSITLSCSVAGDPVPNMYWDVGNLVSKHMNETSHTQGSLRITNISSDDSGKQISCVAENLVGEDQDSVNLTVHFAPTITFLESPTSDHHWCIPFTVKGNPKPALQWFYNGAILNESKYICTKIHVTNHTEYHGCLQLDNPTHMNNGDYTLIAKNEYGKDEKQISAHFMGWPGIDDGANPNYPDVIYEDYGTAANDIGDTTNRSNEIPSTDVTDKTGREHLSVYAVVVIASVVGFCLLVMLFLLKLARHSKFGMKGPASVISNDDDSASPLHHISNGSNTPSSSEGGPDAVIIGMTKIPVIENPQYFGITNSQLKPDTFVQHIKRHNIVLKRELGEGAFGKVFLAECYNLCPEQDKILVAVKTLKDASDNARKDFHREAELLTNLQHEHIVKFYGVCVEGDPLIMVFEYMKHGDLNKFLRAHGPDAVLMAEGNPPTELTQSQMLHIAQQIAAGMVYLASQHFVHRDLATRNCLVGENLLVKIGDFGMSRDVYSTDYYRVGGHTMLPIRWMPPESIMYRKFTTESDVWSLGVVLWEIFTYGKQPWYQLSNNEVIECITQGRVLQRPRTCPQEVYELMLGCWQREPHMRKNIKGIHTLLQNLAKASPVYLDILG

BDNF activity (TrkB agonistic EC50, nmol/L) [1]: 0.16 nmol/L
EC50 [2]: 2.3 nM
EC50 [3]: 0.63 nM
B1: hBDNF-anti-hTfR antibody 6 (other)
heavy: HSDPARRGELSVCDSISEWVTAADKKTAVDMSGGTVTVLEKVPVSKGQLKQYFYETKCNPMGYTKEGCRGIDKRHWNSQCRTTQSYVRALTMDSKKRIGWRFIRIDTSCVCTLTIKRGRGSGGGGSGGGGSGGGGSGGGGSGGGGSEVQLVQSGAEVKKPGESLKISCKGSGYSFTNYWLGWVRQMPGKGLEWMGDIYPGGDYPTYSEKFKVQVTISADKSISTAYLQWSSLKASDTAMYYCARSGNYDEVAYWGQGTLVTVSSASTKGPSVFPLAPSSKSTSGGTAALGCLVKDYFPEPVTVSWNSGALTSGVHTFPAVLQSSGLYSLSSVVTVPSSSLGTQTYICNVNHKPSNTKVDKKVEPKSCDKTHT
light: DIVMTQTPLSLSVTPGQPASISCRSSQSLVHSNGNTYLHWYLQKPGQSPQLLIYKVSNRFSGVPDRFSGSGSGTDFTLKISRVEAEDVGVYYCSQSTHVPWTFGQGTKVEIKRTVAAPSVFIFPPSDEQLKSGTASVVCLLNNFYPREAKVQWKVDNALQSGNSQESVTEQDSKDSTYSLSSTLTLSKADYEKHKVYACEVTHQGLSSPVTKSFNRGEC
notes: also called fusion protein of hBDNF and humanized anti-hTfR antibody Fab; product of pE-neo (BDNF-Fab HC-1) and pE-hygr (LC3)

Kd [4]: 1.12 nM
koff [4]: 0.000676 s⁻¹
kon [4]: 603000 M⁻¹ s⁻¹
Kd [5]: < 0.001 nM
koff [5]: < 1e-07 s⁻¹
kon [5]: 1.19e+06 M⁻¹ s⁻¹
EC50 [6]: 0.25 nM
EC50 [7]: 0.09 nM
B2: humanized anti-hTfR antibody No. 3 (antibody, human IgG1, kappa)
heavy: not shown
light: B1 light
notes: IgG1; expressed in CHO-K1, purified on Protein A
